The target in this data set is RNase A (UniProt P61823). Description: inhibition.
Sequence of UniProt P61823 (P61823 27-150): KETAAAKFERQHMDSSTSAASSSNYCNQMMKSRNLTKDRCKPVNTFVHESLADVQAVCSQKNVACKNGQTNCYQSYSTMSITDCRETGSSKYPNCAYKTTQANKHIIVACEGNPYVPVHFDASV

For orientation: Ki means a dissociation constant, usually derived from enzyme kinetics or from competition with a known ligand. A high value points to weaker binding. For polyG, the inhibitory constant (Ki) was found to be 10 nM (2 ug/ml polyG, polyC substrate, 100 mM MES, 100 mM NaCl pH 6.0, non-competitive); 87.3 nM (20 ug/ml polyG, polyC substrate, 100 mM MES, 100 mM NaCl pH 6.0, non-competitive); 40 nM (Dixon, 40 mM Tris-HCl pH 7.9, 6 mM MgCl2, 10 mM NaCl, 2 mM spermidine); 10 nM (Dixon, 40 mM Tris-HCl pH 7.9, 6 mM MgCl2, 10 mM NaCl, no spermidine).

These data come from patent US20020137076.
